Patent US20180155451A1 (published 2018)
Substitutions are numbered along the chain they refer to. Names may count otherwise.

Legend:
[1] = biological target: T1, FcgRIa (human, UniProt P12314 16-292); assay: SPR (Biacore 4000), antibody captured on chip, FcgR as analyte; kd below the limit 5e-5 /s
T1 construct: extracellular domain; also called FcγRIa; FcγRI; not shown: C-terminal His tag
Procedure: (§1) The variants described above were assessed for their binding to FcgR according to the method described in Reference Example 8.
(§2) Analysis of interaction between obj ective antibody and the FcγR was carried out using Biacore T100 (GE Healthcare), Biacore T200, Biacore A100, and Biacore 4000. HBS-EP+ (GE Healthcare) was used as the running buffer, and the measurement temperature was set to 25° C. Chips produced by immobilizing the antigen peptide by the amine coupling method to a Series S sensor Chip CM5 (GE Healthcare), chips produced by allowing preliminarily biotinylated antigen peptides to interact with and immobilize onto a Series S Sensor Chip SA (certified) (GE Healthcare), chips produced by immobilizing Protein L (ACTIGEN, BioVision) to Series S Sencor Chip CM5 (GE Healthcare), or chips produced by immobilizing Protein A/G (Thermo Scientific) to Series S Sencor Chip CM5 (GE Healthcare) were used. Antibodies of interest were captured onto these chips, and allowed to interact to each FcγR diluted with running buffer. To regenerate and repeatedly use the chip, the antibodies captured onto the chip were washed off by reacting 10 mM glycine-HCl, pH 1.5.

[2] = biological target: T2, FcgRIIIaF (human, UniProt P08637 17-208); assay: SPR (Biacore); KD of H240-Kn120/H240-Hl068/L73-k0 divided by KD of the sample
T2 construct: extracellular domain; F158 allotype; also called FcγRIIIa F; not shown: C-terminal His tag
T2 sequence (P08637 17-208): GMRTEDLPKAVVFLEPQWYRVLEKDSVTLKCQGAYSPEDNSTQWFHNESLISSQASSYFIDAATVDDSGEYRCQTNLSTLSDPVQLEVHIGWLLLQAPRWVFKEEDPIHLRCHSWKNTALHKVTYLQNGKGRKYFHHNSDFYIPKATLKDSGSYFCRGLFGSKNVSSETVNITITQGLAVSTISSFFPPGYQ
Procedure: as §1, §2

[3] = biological target: T3, FcgRIIb (human, UniProt P31994 43-217); assay: as above
T3 construct: extracellular domain; also called FcγRIIb; CD32B; not shown: C-terminal His tag
T3 sequence (looked up): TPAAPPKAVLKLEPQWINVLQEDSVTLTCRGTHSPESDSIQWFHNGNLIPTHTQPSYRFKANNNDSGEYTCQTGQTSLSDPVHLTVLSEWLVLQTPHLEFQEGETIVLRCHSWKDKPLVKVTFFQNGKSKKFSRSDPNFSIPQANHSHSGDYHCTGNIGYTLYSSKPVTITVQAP
Procedure: as §1, §2

[4] = biological target: T4, FcgRIIaR (human, UniProt P12318 34-217); assay: as above
T4 construct: extracellular domain; R131 allotype; also called FcγRIIa R; FcgRIIa type R; not shown: C-terminal His tag
T4 sequence (looked up): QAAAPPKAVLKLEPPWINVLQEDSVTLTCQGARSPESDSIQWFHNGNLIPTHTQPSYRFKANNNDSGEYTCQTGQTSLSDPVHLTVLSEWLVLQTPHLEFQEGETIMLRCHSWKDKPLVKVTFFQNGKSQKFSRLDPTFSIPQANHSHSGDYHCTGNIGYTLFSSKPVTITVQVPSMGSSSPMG
Procedure: as §1, §2

[5] = biological target: T5, FcgRIIaH (human, UniProt P12318 34-217); assay: as above
T5 construct: extracellular domain; H131 allotype; also called FcγRIIa H; FcgRIIa type H; not shown: C-terminal His tag
T5 sequence (looked up): T4 sequence (looked up) with R134H
Procedure: as §1, §2

[6] = biological target: T6, FcgRIIIaV (human, UniProt P08637 17-208); assay: as above
T6 construct: extracellular domain; V158 allotype; also called FcγRIIIa V; not shown: C-terminal His tag
T6 sequence (P08637 17-208 F176V limits assumed): as the sequence (P08637 17-208) above, with F160V counted along it
Procedure: as §1, §2

[7] = biological target: T2, FcgRIIIaF; assay: SPR (Biacore), antibody captured on chip, FcgR as analyte
Procedure: as §1, §2

[8] = biological target: T3, FcgRIIb; assay: as above
Procedure: as §1, §2

[9] = biological target: T4, FcgRIIaR; assay: as above
Procedure: as §1, §2

[10] = biological target: T5, FcgRIIaH; assay: as above
Procedure: as §1, §2

[11] = biological target: T6, FcgRIIIaV; assay: as above
Procedure: as §1, §2

T1 sequence (P12314 16-292): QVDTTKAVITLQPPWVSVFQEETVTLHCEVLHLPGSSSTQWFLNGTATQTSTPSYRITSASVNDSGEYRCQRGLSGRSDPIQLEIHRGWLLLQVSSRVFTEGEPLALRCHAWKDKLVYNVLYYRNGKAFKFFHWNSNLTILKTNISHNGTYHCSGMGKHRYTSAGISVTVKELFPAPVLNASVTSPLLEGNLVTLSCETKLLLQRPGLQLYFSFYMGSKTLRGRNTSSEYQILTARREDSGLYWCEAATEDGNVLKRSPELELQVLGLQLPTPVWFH

Kd [1]: < 0.028 nM
Relative KD [2]: 0.3
Relative KD [3]: 0.7
Relative KD [4]: 1.3
Relative KD [5]: 2
Relative KD [6]: 0.2
Kd [7]: 8.2 nM
Kd [8]: 210 nM
Kd [9]: 15 nM
Kd [10]: 21 nM
Kd [11]: 1.8 nM
B1: H240-Kn120/H240-Hl073/L73-k0 (antibody, human IgG1, kappa)
heavy 1: QDQLVQSGAEVKKPGASVKVSCKASGFNIKDTYIQWVRQAPGQGLEWMGRIDPLRKQTKYREKFEGRVTITADTSTNTAYMELSSLRSEDTAVYYCVRSGREFDYWGQGTLVTVSSASTKGPSVFPLAPSSKSTSGGTAALGCLVKDYFPEPVTVSWNSGALTSGVHTFPAVLQSSGLYSLSSVVTVPSSSLGTQTYICNVNHKPSNTKVDKKVEPKSCDKTHTCPPCPAPEYYWGPMVFLFPPKPKDTLMISRTPEVTCVVVDVSDEDPEVKFNWYVDGVEVHNAKTKPREEQYNATYRVVSVLTVLHQDWLNGKEYKCKVSNKDLPAPIEKTISKAKGQPREPQVCTLPPSRDELTKNQVSLWCLVKGFYPSDIAVEWESNGQPENNYKTTPPVLDSDGSFFLYSKLTVDKSRWQQGNVFSCSVMHEALHNHYTQKSLSLSP
heavy 2: QDQLVQSGAEVKKPGASVKVSCKASGFNIKDTYIQWVRQAPGQGLEWMGRIDPLRKQTKYREKFEGRVTITADTSTNTAYMELSSLRSEDTAVYYCVRSGREFDYWGQGTLVTVSSASTKGPSVFPLAPSSKSTSGGTAALGCLVKDYFPEPVTVSWNSGALTSGVHTFPAVLQSSGLYSLSSVVTVPSSSLGTQTYICNVNHKPSNTKVDKKVEPKSCDKTHTCPPCPAPELLSGPSVFLFPPKPKDTLMISRTPEVTCVVVDVSHEEPEVKFNWYVDGVEVHNAKTKPREEQYNSTYRVVSVLTVLHQDWLNGKEYKCKVSNDALPKPIEETISKAKGQPREPQVYTLPPSRCELTKNQVSLSCAVKGFYPSDIAVEWESNGQPENNYKTTPPVLDSDGSFFLVSKLTVDKSRWQQGNVFSCSVMHEALHNHYTQKSLSLSP
light: DIQMTQSPSSLSASVGDRVTITCRASQDIHKYIAWYQQKPGQAPRLLIQYTSTLQPGVPSRFSGSGSGTDYTFTISSLQPEDIATYYCLQYEQLRTFGGGTKVEIKRTVAAPSVFIFPPSDEQLKSGTASVVCLLNNFYPREAKVQWKVDNALQSGNSQESVTEQDSKDSTYSLSSTLTLSKADYEKHKVYACEVTHQGLSSPVTKSFNRGEC
notes: Heterodimerized anti-epiregulin antibody; G236S in the Hl068 chain; also called H240-Kn120/H240-HI073/L73-k0
